Reference: the supplement of paper PMC7125110
± gives the standard error. For some assays here: This sample holds only a part of the variants without activity.

B1: glmS ribozyme (parent)
chain: AUAAAAGCGCCAGAACUACAGAAAUGUAGUUGACGAGGAGGAGGUUUAUCGAAUUUUCGGCGGAUGCCUCCAAA

Columns and labels:
Conditions in all cases: with glucosamine-6-phosphate
glucosamine-6-phosphate [1] = variants of: B1; assay: kcat; higher = faster cleavage; RNA array
Summary of the method: (§1)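 Using a hybridised Cy3 probe at 37 °C, barcoded ribozyme variants transcribed in situ by E. coli RNA polymerase on sequenced MiSeq chips were monitored across tiles imaged over ~14 h. The flow contained glucosamine-6-phosphate from 40 μM to 10 mM in HEPES/KCl/Mg(OAc)2 buffer. Signals were normalised to baseline and to non-cleaving reference variants before per-tile medians were fit to one- or two-exponential decays to yield kobs. Weighted Michaelis–Menten fits across concentrations gave kcat and KM.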

glucosamine-6-phosphate [2] = variants of: B1; assay: self-cleavage kobs at 40 uM GlcN6P; higher = faster cleavage; RNA array
Summary of the method: as §1

glucosamine-6-phosphate [3] = variants of: B1; assay: self-cleavage kobs at 160 uM GlcN6P; higher = faster cleavage; RNA array
Summary of the method: as §1

glucosamine-6-phosphate [4] = variants of: B1; assay: self-cleavage kobs at 640 uM GlcN6P; higher = faster cleavage; RNA array
Summary of the method: as §1

glucosamine-6-phosphate [5] = variants of: B1; assay: self-cleavage kobs at 2500 uM GlcN6P; higher = faster cleavage; RNA array
Summary of the method: as §1

glucosamine-6-phosphate [6] = variants of: B1; assay: self-cleavage kobs at 10000 uM GlcN6P; higher = faster cleavage; RNA array
Summary of the method: as §1

glucosamine-6-phosphate [7] = variants of: B1; assay: KM; higher = weaker cofactor use; RNA array
Summary of the method: as §1

| Variant | kcat (glucosamine-6-phosphate [1]) | self-cleavage kobs at 40 uM GlcN6P (glucosamine-6-phosphate [2]) | self-cleavage kobs at 160 uM GlcN6P (glucosamine-6-phosphate [3]) | self-cleavage kobs at 640 uM GlcN6P (glucosamine-6-phosphate [4]) | self-cleavage kobs at 2500 uM GlcN6P (glucosamine-6-phosphate [5]) | self-cleavage kobs at 10000 uM GlcN6P (glucosamine-6-phosphate [6]) | KM (glucosamine-6-phosphate [7]) |
| --- | --- | --- | --- | --- | --- | --- | --- |
| C50G U69C | 0.000107 ± 2.1e-05 s⁻¹ | 0.000118 ± 3.6e-05 s⁻¹ | 9.81e-05 ± 2.6e-05 s⁻¹ | 9.95e-05 ± 1.7e-05 s⁻¹ | 0.000193 ± 3.4e-05 s⁻¹ | 9.16e-05 ± 1.9e-05 s⁻¹ |  |
| C11A A15C C70A | 4.15e-05 ± 2.7e-06 s⁻¹ |  |  |  |  | 4.27e-05 ± 1.9e-05 s⁻¹ |  |
| U65G U69C | 0.00467 ± 0.0019 s⁻¹ |  | 0.000177 ± 4.5e-05 s⁻¹ | 0.000431 ± 8.3e-05 s⁻¹ | 0.00108 ± 0.00019 s⁻¹ | 0.00297 ± 0.0005 s⁻¹ |  |
| A42C G60C | < 1e-05 s⁻¹ | < 1e-05 s⁻¹ | < 1e-05 s⁻¹ | < 1e-05 s⁻¹ |  |  |  |
| G37A U45G C70G | 1.07e-05 ± 4e-06 s⁻¹ |  |  |  |  |  |  |
| C58A C61G | 1.62e-05 ± 5.8e-06 s⁻¹ |  |  |  |  |  |  |
| A12C A48G | 5.38e-05 ± 6.8e-06 s⁻¹ |  |  |  | 4.26e-05 ± 1.2e-05 s⁻¹ | 4.66e-05 ± 7.1e-06 s⁻¹ |  |
| C10U C34A C50A G51U C70A | 5.4e-05 ± 1.3e-05 s⁻¹ |  |  |  |  | 7.55e-05 ± 2.9e-05 s⁻¹ |  |
| A15U U47G | 0.000703 ± 0.00012 s⁻¹ | 5.1e-05 ± 1.1e-05 s⁻¹ | 8.04e-05 ± 1.3e-05 s⁻¹ | 0.000238 ± 2.7e-05 s⁻¹ | 0.000473 ± 5.8e-05 s⁻¹ | 0.000653 ± 7.7e-05 s⁻¹ | 1160 ± 360 µM |
| U31C U54C | 0.00689 ± 0.0027 s⁻¹ | 0.000101 ± 1.8e-05 s⁻¹ | 0.000254 ± 4.6e-05 s⁻¹ | 0.00134 ± 0.00024 s⁻¹ | 0.00166 ± 0.00057 s⁻¹ | 0.00579 ± 0.00087 s⁻¹ |  |
| G26U C70G | 0.000115 ± 1e-05 s⁻¹ |  | 6.66e-05 ± 1.3e-05 s⁻¹ | 9.17e-05 ± 1.7e-05 s⁻¹ | 0.000117 ± 1.6e-05 s⁻¹ | 9.26e-05 ± 2.8e-05 s⁻¹ | 142 ± 48 µM |
| U57G C67U | 3.05e-05 ± 1e-05 s⁻¹ |  |  |  | 4.91e-05 ± 1.5e-05 s⁻¹ | 2.19e-05 ± 1e-05 s⁻¹ |  |
| U56C U65A | 0.0012 ± 0.00021 s⁻¹ |  | 2.29e-05 ± 1.1e-05 s⁻¹ | 0.000115 ± 2.5e-05 s⁻¹ | 0.000269 ± 5.1e-05 s⁻¹ | 0.000702 ± 8.3e-05 s⁻¹ | 7470 ± 2000 µM |
| G40A A42C | 2.78e-05 ± 3.3e-06 s⁻¹ |  | < 1e-05 s⁻¹ |  |  |  | 1680 ± 670 µM |
| G66U C67U | 0.000913 ± 3.1e-05 s⁻¹ | 3.44e-05 ± 7.1e-06 s⁻¹ | 0.00011 ± 1.3e-05 s⁻¹ | 0.000333 ± 4.2e-05 s⁻¹ | 0.000607 ± 8.4e-05 s⁻¹ | 0.000831 ± 7.9e-05 s⁻¹ | 1130 ± 66 µM |
| G32A U47C | 0.000343 ± 5.5e-05 s⁻¹ |  |  | 7.19e-05 ± 1.5e-05 s⁻¹ | 0.000185 ± 2.3e-05 s⁻¹ | 0.000258 ± 4.4e-05 s⁻¹ | 2450 ± 760 µM |
| G40U A42G | 0.00742 ± 0.00078 s⁻¹ | 0.000214 ± 4e-05 s⁻¹ | 0.00072 ± 0.00018 s⁻¹ | 0.00267 ± 0.00058 s⁻¹ | 0.00567 ± 0.001 s⁻¹ | 0.00603 ± 0.001 s⁻¹ | 1330 ± 220 µM |
